# Measurements: the nanobody polyreactivity screen of Harvey et al. (2022)
# Assay: yeast display, Sf9 membrane polyspecificity reagent, FACS + sequencing; frameworks hold sequencing errors
# Outline: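 After 36–48 hours of galactose induction, yeast (Saccharomyces cerevisiae BJ5465) displaying a synthetic nanobody library were stained at 4 °C for 1 hour with 10% biotinylated, detergent-solubilized Sf9 membrane reagent. Streptavidin microbeads enriched the stained cells before FACS sorting into low and high (top ~1%) gates on anti-HA and streptavidin fluorescence. Each clone's polyreactivity label reflects its gate of origin.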
sequence,measurement,value
QVQLVESGGGLVQAGGSLRLTCAASGSIFSRYAMGWYRQAPGKERELVAAISQRAGSTYYADSVKGRFTISRDNAKNTVYLQMNSLKPEDTAVYYCAARRRGRKERGEDYWGQGTQVTVSS,polyreactivity (PSR sort gate),high polyreactivity
QVQLVESGGGLVQAGGSLRLSCAASGLIFVSYAMGWYRQAPGKERELVASITYSGGGTYYADSVKGRFTISRDYAKNTVYLQMNSLKPEDNAVYYCNADVCWCYSVYREYCMDYWGQGTQVTVSS,polyreactivity (PSR sort gate),low polyreactivity
QVQLVESGGGLVQAGGSLRLSCAASGFNFRKYAMGWYRQAPGKERELVASITSGGGSTYYADSVKGRFTISRDNAKNTVYLQMNSLKPEDTAVYYCAAVAYTGGPRKLGFNYWGQGTQVTVSS,polyreactivity (PSR sort gate),high polyreactivity
QLQLVESGGGLVQAGGSLRLSCAASGRIFKFNAMGWYRQATGKERELVARITWRGGSPYYADSVKGRFTISRDNAKNTVYLQLNSLKPEDTAVYDCATYTPWTRFYSGTEVGYWGQGTQVTVSS,polyreactivity (PSR sort gate),high polyreactivity
QDHLVESGGCLVQAGGSLRLSCSASGRIFRYYAMGWYRHAPGKERELVAAIRNGGSTYYADSVKGRFTISRDNAKNTVYLQMNSLKPEDTAVYYCAAGYNYVSHRCGDWGQGSQVTVSS,polyreactivity (PSR sort gate),high polyreactivity
QVQLQESGGGLVQAGGSLRLSCAASGTISVHASMGWYRQAPGKERELVAGITDGANTYYADSVKGRFTISRDNSKNTVYLQMNSLKPEDTAVYYCAAYYGTEVHFTYWGQGTQVTVSS,polyreactivity (PSR sort gate),low polyreactivity
QDQLVESGGGLVQAGGSLRLSCAASGRNFELYAMGWYRPAPRKERELVATISGSGGSTYYADSVKGRFTISRDNAKNTVYLQMNSLKPEDTAVFYCAKNAYGYYYSRSDDWGQGTQVTVSS,polyreactivity (PSR sort gate),low polyreactivity
QDQLQESGGGLEQARGSLRLSCAASGYISTFSSEMGWYRQAPGKELELVASIAPCCTTSYADSVKGRCTISRDNAKNTVYLQMNSLKPEDTSVYYCAVDYTVPASFGFRGQGTQVTVSS,polyreactivity (PSR sort gate),high polyreactivity
QVQLVESGGGLVQAGGSLRLSCAASGSIFVRYTIVWYRQSTWKEMELVAAITSGGRTYYADSVKGRFTISRDNAKNTVYLQMNSLKPEDTAVYYSADVPHIRRYGFYYWGQGTQVTVSS,polyreactivity (PSR sort gate),high polyreactivity
QVQLVDSGGGLVDAGGRLRLSCAASGRTFYAYPMGGYRQAPRTERELVAAITKRDGITFYADSVKGRFTISRDNAKNTVYLQMKSLKPEDTAVDYCDATGYVGGIYGHYPRGYWGQCTQVTVSS,polyreactivity (PSR sort gate),high polyreactivity
QVQLVESGGGLVQAGGSLRLSCAASGRTFYGYAMGWYRQAPGKERELVASISWSTGSTHYADSVKGRFTISRDNAKNTVYLQMNSLKPEDTAVYYCAAPFWRDSYVQIDYDYWGQGTQVTVSS,polyreactivity (PSR sort gate),low polyreactivity
QVQLVESGGGLVQAGGSLRLSCAASGRTFYGNVMGWYRQAPGKERELVAAISSRGSRTYYADSVKGRFTISRDNAKNTVYLQMNSLKPEETAVYYCNTYVRNHGLAGPDDYWGQGTLVTVSS,polyreactivity (PSR sort gate),high polyreactivity
QVQLVESGGGLVQAGGSLRLSCAASGRIFGSYAMGWYRQAPGKERELVAAITTDDSTNYADSVKGRFTISRDNAKNTVYLQMNSLKPEDTAVYYCNAERWDELFDSWGQGTQVTVSS,polyreactivity (PSR sort gate),low polyreactivity
QVQLVESGGGIVQAGGSLRLSCAASGFTISRNTMGWYRQAPGKEREFVARISAYGGSTYYADSVKGRFTISRDNAKNSVYLQMNSLKPVDTAVYYCAAVYRRYGGSRYDYWGQGTQVTVSS,polyreactivity (PSR sort gate),high polyreactivity
QVQLVESGGGLVQAGGSLRLSCAASGSTFRPYGMGWYRQAPGKERELVAAINSGDSTYYADSVKGRFTISRDNAKNTFYLQMNSLKPEDTAVYYCNADVWWDTWFLDGYDYWGQGTQVTVSS,polyreactivity (PSR sort gate),high polyreactivity
QVQLVESGGGLVQAGGSLRLICAASGFTFPWYAMGWYRQAPGKERELVATITSGGRTNYADSVKGRFTISRDNAKNTVYLQMNSLKPEDTAVYYCAARASKYSYRTDPWHGDYWGQGTQVTVSS,polyreactivity (PSR sort gate),high polyreactivity
QVQHVESGGGLVHAGGRLRLRCAASGSTFVTNVMGWYSQEPGKEMELVAAISYSGGNTYYEDSEKGRFTISRDNAQNSVYLQMNSLKQEDTAVYYCAAAYKPFKKMGYWGQGTQVTVSS,polyreactivity (PSR sort gate),high polyreactivity
QVQLVESGGVLVQAGGSLRLSCAASGSTFSYYTMGWYRQAPGKERELVATISKRGGTTSYADSVKGRFTISRDNAKNTVYLQMNSLKPEDTAVYYCAARYSKVHYAYDYWGQGTQVTVSS,polyreactivity (PSR sort gate),high polyreactivity
QLQLVESGGGLVQAGGSLRLSCAASGNTFFPYTMGWYRQAPGKERELVAAITWSGVSTYYADSVKGRFTISRDNAKYTVDLQMNSLKPEDTAVYYCAAPSTGTYGSDYWGQGTQVTVSS,polyreactivity (PSR sort gate),high polyreactivity
QVQLVESGGGLVQAGGSLRLSSAASGITFQAYPMGWYRQAPGKQRELVAAISNGGSTYYADSVKGRFTISRDNAKNTVYLEMNSLNPEDTAVYYCAAVSYYPARYGYWGQGTQVTVSS,polyreactivity (PSR sort gate),high polyreactivity
QVQLVESGGGLVQAGGSLRLSCAASGSTFYYYVRGWYRQAPGKERELVAAINSGGSTYYADSVKGRFTISRDNAKNTVYLQMNSLKPEDTAVYYCAKSWSYWYQYYYWGQGSQVTVSS,polyreactivity (PSR sort gate),low polyreactivity
QVQLVESVGGLVQAGGSLRLSSAASGIIFRRYPMVWYREPPGKDRELVAAISSGGRTYYADSGKGRFTISRDNAKNSVYLHMNSLKQEDTAVYYCAARWWYKNKYWGQGTQVTVSS,polyreactivity (PSR sort gate),high polyreactivity
QVQLVESGGGLVQAGGSLRLSCAASGRTFAYNTMGWYRQAPGKERELVAAITWSGGGTYYADSVKGRFTISRDNAKNTVYLQMNRLKPEDTAVYFCAVEYASPRARYRYYYWGQGTQVSVSS,polyreactivity (PSR sort gate),low polyreactivity
QVQLVESGGGLVQAGGSLRLSCAASGFTFYYNAMGWYRQAPGKERELVAAISSRGTSTYYADSVKGRFTISRDNAKNTVYLQMNSLKPEDTAVYYCNTDRIGRYYQSYGGGHMDYWGQGTQVTVSS,polyreactivity (PSR sort gate),high polyreactivity
QVQLVESGGGLVQAGGSLRLSCAASGITFSRNGMGWYRQAPGKERELVAAISTSGDSTDYADSVKGRFTISRDNAKNTVYLQMNSLKPEDTAVYYCAASYAFLYYGYDSWGQGTQVTVSS,polyreactivity (PSR sort gate),low polyreactivity
QVQLVESVGGLVQAGGSLRLSCAASGFIFTHYAMGWYRQAPGKERELVAAISSGGSTYYADSVKGRFTISRDNAKNTVYLQMNSLKPEDTAVYYCAAVWPWRYYATGENYWGQGTHVTVSS,polyreactivity (PSR sort gate),high polyreactivity
QVQLVESGGGLVQAGGSLRLSCAASGLTFEVYAMGWYRQARGKERELVAAISSGGGATYYADSVKGRFTISRDNAKNTVYLQMNSLKPEDTAVYYCAAVDPYERYVYWGQGTQVTVSS,polyreactivity (PSR sort gate),low polyreactivity
QVQHVESGGGLVQAGGSLRLSCAASGSTFGPNAMGWYRQAPGKERELVAAINTRGGSTYYADSVKGRFTISRDNAKNTVYLQMNSLKPEDTAVYYCAAEYVVWYLDRFNYWGQGTQVTVSS,polyreactivity (PSR sort gate),high polyreactivity
QVQLVESGGGLVQAGGSLRLSCASSGHIFIGNAMGWYRQAPGKERELVAAISRGGGRTYYADSVKGRFTISRDNAKNTVFLQMNILKPEDTAVYYCATVGQGPTKTPAGRYDYWGQGTQVTVSS,polyreactivity (PSR sort gate),high polyreactivity
QVQLVDSGGGLVQAGGSISLSCAPSGFTIVGNAMGWYRLAPGKERELVAAISSGDDTNDADSVKGRFTISRDNAKNTVYLQMYSLKPEDTAVYYCAAAYYYYVSGWFDYWGQGTQVTVSS,polyreactivity (PSR sort gate),low polyreactivity
QVRLVESGGGLVQAGGSLRLRCAASGSTFYTYAMGRYRQAPGKERELVAAITFIDGSTYYADSVKGRFTISRDNANNTVYLQMNSLKPEDTAVYYCAAASRGWGYPLYYSTDEYWGHGTQVTVSS,polyreactivity (PSR sort gate),low polyreactivity
QVQLVESGGGLVQAGGSLRLSCAASGSTFFRYAMGWYRQAPGKERELVAAITTSGGNTYYADSVKGRFTISRDNAKNTVYLQMNSLKPEDTAVYYCNVLRGFPRYYYWGQGTQVTVSS,polyreactivity (PSR sort gate),high polyreactivity
QGQLVESGGGLVQAGGSLRLSCAACGSIFTYYTMGWYRQAPGKERELVAAIRWSAGRTYYADSVKGRFTISRDNAKNTVYLQMNSMKPEDTAVYYCAAAERLRHGLKFDYWGQGTQVTLSS,polyreactivity (PSR sort gate),high polyreactivity
QVQLVESGGGLVQAGGSLRLSCAASGLIFRSNAMGWYRQAPGKERELVAAISRNGQSTYYADSVKGRFTISRDNAKYTVYLQMNSLKPEDTAVFYCAARSRDKYDYWGQGTEVTVSS,polyreactivity (PSR sort gate),high polyreactivity
QVQLVESGGGLVQAGGSLRLSCAASGSTFGYYAMGWYRQAPGKERELVAAISSGGSTNYADSVKGRFTISRDNAKNTVYLQMNSLKPEDTAVYYCNVGYIFVSFRYDYWGQGTQVTVSS,polyreactivity (PSR sort gate),low polyreactivity
QVQLVESAGGLVQAGGSLRLSCAASGAIFGGYAMGWYRQAPGKERELVAAISSSGGSTYFADSVKGRFTISRDNEKNTVYLQMNSLKPEDTAVYYCAAKYQRRYYYWGQGTQVTVSS,polyreactivity (PSR sort gate),high polyreactivity
QVQLVESGGGLVQAGGSLRLSCAASGLTFSRNAMGWYRRAAGKERELVAAITKSGARTYYADSVKGRFTISRDNAKNTVYLQMNSLKPEDTAVYYCAADALNTYYYWGQGTQVTVSS,polyreactivity (PSR sort gate),high polyreactivity
QVQLVESGGGLFQAGGSLRLSCAASGSTFYSYAMGWYRKAPGKERELVAAISRNGGYTYYADSVKGRFTISRDNAKNTVYLQMNSLKPEDTAVYYCAALRYVHGYDYWGQGTQVTGSS,polyreactivity (PSR sort gate),high polyreactivity
QVQLVESGGGLVQAGGSLRLSCAASGSTFRFYGMGWYRQAPGKERELVAAITYRSGITYADSGKGGFSISRDNANNTVYLLMNSLKPEETAVYYCAARARRYTDEYDYWGQGTQVTVSS,polyreactivity (PSR sort gate),low polyreactivity
QIQLVESGGGLVQAGGSLRLSCAASGSTLPDYAMGWYRQAPGKERELVADITARGGTYYADSVKGRFTISRDNAKNTVYLQMNSLKPEDTAVYYCAARISGRWYEYWGQGTQVTVSS,polyreactivity (PSR sort gate),high polyreactivity
QVQLVESGGCLVQAGGSLRLSCAASGLTFRGYAKGWYRPAPGKERELVAAITSSAGRTNYADSVKGRFTISRDNAKNTVYLQMNSLNPEDTAVYYCAAAHSYTTRWGYYKFNYWGQGTQVSVSS,polyreactivity (PSR sort gate),high polyreactivity
QVQLVESGGGLVQAGGSLRLSCAASGGIFDRYAMGWYRQAPGKERELVAAITGSGGRTYYADSVKGRFTISRDKAKNSVYLQMTSLKPVDPAVYYCARAFGQRRYDYWGHGTQVTVSS,polyreactivity (PSR sort gate),high polyreactivity
QVQLVESGRGLVQAGGSLRLSCAASGSTFGWYSMGWYRQAPGKERELVTAITSSGDSTYYADSVKGRFTISRDNAKNTVYLQMNSLKPEDTAVYYCAADYADLNDYWGQGTQVTVSS,polyreactivity (PSR sort gate),low polyreactivity
